The results in this text go back to US20050074865A1.

Sequence of recombinant human TNFα (RDI) (human) (P01375 77-233 limits assumed): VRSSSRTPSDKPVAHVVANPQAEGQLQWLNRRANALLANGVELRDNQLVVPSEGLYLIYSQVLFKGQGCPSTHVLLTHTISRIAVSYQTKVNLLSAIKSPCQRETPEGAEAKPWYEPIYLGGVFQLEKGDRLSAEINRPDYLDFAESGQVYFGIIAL
Sequence of TRYPSIN (commercial protease of the screen) (enzyme) (P00760 24-246): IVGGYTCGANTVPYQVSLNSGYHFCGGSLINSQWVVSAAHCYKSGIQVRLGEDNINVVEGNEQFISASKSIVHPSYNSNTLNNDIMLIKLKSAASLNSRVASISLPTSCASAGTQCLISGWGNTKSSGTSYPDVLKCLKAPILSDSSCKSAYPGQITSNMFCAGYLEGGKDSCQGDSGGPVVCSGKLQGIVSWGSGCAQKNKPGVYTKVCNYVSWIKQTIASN
Sequence of MMP12 (enzyme) (P39900 106-470): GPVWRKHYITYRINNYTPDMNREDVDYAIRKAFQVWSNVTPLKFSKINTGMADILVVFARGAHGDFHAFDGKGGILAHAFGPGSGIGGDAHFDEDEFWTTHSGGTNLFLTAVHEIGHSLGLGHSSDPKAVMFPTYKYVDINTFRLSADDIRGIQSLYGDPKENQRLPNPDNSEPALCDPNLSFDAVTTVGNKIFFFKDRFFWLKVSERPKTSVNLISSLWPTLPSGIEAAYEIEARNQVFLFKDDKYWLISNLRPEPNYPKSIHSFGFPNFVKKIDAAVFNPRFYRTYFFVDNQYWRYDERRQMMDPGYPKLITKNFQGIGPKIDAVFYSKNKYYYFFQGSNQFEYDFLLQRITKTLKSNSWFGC

This assay addresses recombinant human TNFα (RDI) (human) (UniProt P01375). As to the kind of experiment: cell-based or functional assay.
Consider MMP12 (enzyme), for which the log reduction in TNFα activity at the 50% survival level, L929 cytotoxicity bioassay after overnight digestion was 0.65 log.

Consider MT1-MMP (enzyme), for which the log reduction in TNFα activity at the 50% survival level, L929 cytotoxicity bioassay after overnight digestion stood at 0.86 log.

For Tryptase (enzyme), the log reduction in TNFα activity at the 50% survival level, L929 cytotoxicity bioassay after overnight digestion came out at 0.62 log.

As for “TRYPSIN (commercial protease of the screen) (enzyme)”, the log reduction in TNFα activity at the 50% survival level, L929 cytotoxicity bioassay after overnight digestion turned out to be 2.3 log.

As to ELASTASE (enzyme), the log reduction in TNFα activity at the 50% survival level, L929 cytotoxicity bioassay after overnight digestion is 1.45 log.

CHYMOTRYPSIN (enzyme): the log reduction in TNFα activity at the 50% survival level, L929 cytotoxicity bioassay after overnight digestion was found to be 2.74 log.
